From publication PMC12321133, “scFv intrabody targeting wildtype TDP-43 presents protective effects in a cellular model of TDP-43 proteinopathy” (PLOS One, 2025)

B1: scFv B1, purified (c-myc and 6xHis tags) (scFv)
scFv: MAEVQLVESGGSLVKPGGSLRLSCAASGFTFSNYDMNWVRQAPGKGLEWISDIDGSSRNIYYADFVKGRFTISRDNATNSLYLQMNSLRAEDTAVYYCVRSSYYDNGMDVWGRGTLVTVSSGGGGSGGGGSGGGGSQSVLTQPASVSGSPGQSITISCAGTSSDVGGYDGVSWYQQHPGKAPKLMIYYDSYRPSGVSNRFSGSKSGNTASLTISGLQAEDEADYYCSSYTYYSTRVFGGGTKLAVLG
notes: VH of scFv B1 as printed; linker of the HuscI library between VH and VL; VL of scFv B1; Selected from the human synthetic HuscI library; The scFv was moved as an NcoI-NotI fragment from pHEN-HuscI into pET-23NN, which adds c-myc and 6xHis at the 3' end; source: E. coli BL21(DE3)pLysS, pET-23NN vector, purified (Ni-NTA, dialysed in MilliQ water); not shown: c-myc, C-terminal, kept; His6, …
B2: scFv D7, purified (c-myc and 6xHis tags) (scFv)
scFv: MAEVQLVESGGSLVKPGGSLRLSCAASGFTFSNYYMNWVRQAPGKGLEWISDIYGSSRYISYADFVKGRFTISRDNATNSLYLQMNSLRAEDTAVYYCVRSSSNDGGGMDVWGRGTLVTVSSGGGGSGGGGSGGGGSQSVLTQPASVSGSPGQSITISCAGTSSDVGGNNYVSWYQQHPGKAPKLMIYYDSYRPSGVSNRFSGSKSGNTASLTISGLQAEDEADYYCSSYTYSSTRVFGGGTKLAVLG
notes: VH of scFv D7 as printed; linker of the HuscI library between VH and VL; VL of scFv D7; Selected from the human synthetic HuscI library; The scFv was moved as an NcoI-NotI fragment from pHEN-HuscI into pET-23NN, which adds c-myc and 6xHis at the 3' end; source: E. coli BL21(DE3)pLysS, pET-23NN vector, purified (Ni-NTA, dialysed in MilliQ water); not shown: c-myc, C-terminal, kept; His6, …

Target: T1, commercial recombinant human full-length wtTDP-43 (Abcam, ab224788) (human, UniProt Q13148 1-414)
T1 construct: TDP-43 (TARDBP), human, wild type, recombinant full length; also called recombinant wtTDP-43; source: bought: Abcam, ab224788
T1 sequence (Q13148 whole entry): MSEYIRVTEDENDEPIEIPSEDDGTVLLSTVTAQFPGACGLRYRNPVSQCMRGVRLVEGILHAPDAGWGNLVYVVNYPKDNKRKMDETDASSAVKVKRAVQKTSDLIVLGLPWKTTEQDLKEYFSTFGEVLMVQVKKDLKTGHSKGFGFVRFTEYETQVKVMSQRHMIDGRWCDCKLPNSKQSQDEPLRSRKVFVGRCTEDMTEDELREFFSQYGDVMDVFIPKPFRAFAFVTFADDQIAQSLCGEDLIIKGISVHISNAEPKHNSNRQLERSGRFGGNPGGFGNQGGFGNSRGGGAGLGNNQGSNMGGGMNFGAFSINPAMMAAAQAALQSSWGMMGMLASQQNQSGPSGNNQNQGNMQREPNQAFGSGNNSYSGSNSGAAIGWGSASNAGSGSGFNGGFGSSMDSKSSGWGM
Experiment: ELISA; indirect ELISA: wells coated overnight at 4 °C with commercial human wtTDP-43 at 1 µg/mL in PBS; purified scFv at 1, 5 or 10 µg/mL, 1 h at RT; detected with HRP-conjugated anti-6xHis antibody, absorbance at 450 nm
Details: both partners purified

Row | Binder | fold increase of the ELISA signal over the control scFv 13R4 at 5 µg/mL [fold] | fold increase of the ELISA signal over the control scFv 13R4 at 10 µg/mL [fold]
1 | B1 | 5 | 3
2 | B2 | 2 | 2
